Where two headings read alike, the source gives them in different places.
System: Nc1ncnc2c1ncn2[C@@H]1O[C@H](COP(=O)(O)OP(=O)(O)OP(=O)(O)O)[C@@H](O)[C@H]1O
Experiment: purified protein

Substance | Km (1 µM MsbA, 0-1 mM ATP, 30 min) | Km
MsbA (Escherichia coli K-12; D512G) | 122 ± 29 µM | –
MsbA (Escherichia coli K-12; L511P) | – | 23 ± 12 µM
